Measurements as given in patent publication US20060029947A1 (University of Texas, published 2006).

B1: NlpA-[14B7 scFv] (scFv)
scFv: CDQSSSDIQMTQTTSSLSASLGDRVTISCRASQDIRNYLNWYQQKPDGTVKLLIYYTSRLQSGVPSRFSGSGSGTDYSLTISNQEQEDIGTYFCQQGNTLPWTFGGGTKLEIKRGGGGSGGGGSGGGGSGGGGSEVQLQQSGPELVKPGASVKISCKDSGYAFSSSWMNWVKQRPGQGLEWIGRIYPGDGDTNYNGKFKGKATLTADKSSSTAYMQLSSLTSVDSAVYFCARSGLLRYAMDYWGQGTSVTVSS
B2: 14B7 scAb (scFv)
chain: DIQMTQTTSSLSASLGDRVTISCRASQDIRNYLNWYQQKPDGTVKLLIYYTSRLQSGVPSRFSGSGSGTDYSLTISNQEQEDIGTYFCQQGNTLPWTFGGGTKLEIKRGGGGSGGGGSGGGGSGGGGSEVQLQQSGPELVKPGASVKISCKDSGYAFSSSWMNWVKQRPGQGLEWIGRIYPGDGDTNYNGKFKGKATLTADKSSSTAYMQLSSLTSVDSAVYFCARSGLLRYAMDYWGQGTSVTVSS
B3: M18 scAb (scFv)
chain: DIQMTQTTSSLSASLGDRVTVSCRASQDIRNYLNWYQQKPDGTVKFLIYYTSRLQPGVPSRFSGSGSGTDYSLTINNLEQEDIGTYFCQQGNTPPWTFGGGTKLEIKRGGGGSDGGGSGGGGSGGGGSEVQLQQSGPELVKPGASVKISCKDSGYAFNSSWMNWVKQRPGQGLEWIGRIYPGDGDSNYNGKFEGKAILTADKSSSTAYMQLSSLTSVDSAVYFCARSGLLRYAMDYWGQGTSVTVSS

Key:
[1] = target: T1, Bacillus anthracis protective antigen (PA) (Bacillus anthracis, UniProt P13423 30-764)
T1 sequence (P13423 30-764 limits assumed): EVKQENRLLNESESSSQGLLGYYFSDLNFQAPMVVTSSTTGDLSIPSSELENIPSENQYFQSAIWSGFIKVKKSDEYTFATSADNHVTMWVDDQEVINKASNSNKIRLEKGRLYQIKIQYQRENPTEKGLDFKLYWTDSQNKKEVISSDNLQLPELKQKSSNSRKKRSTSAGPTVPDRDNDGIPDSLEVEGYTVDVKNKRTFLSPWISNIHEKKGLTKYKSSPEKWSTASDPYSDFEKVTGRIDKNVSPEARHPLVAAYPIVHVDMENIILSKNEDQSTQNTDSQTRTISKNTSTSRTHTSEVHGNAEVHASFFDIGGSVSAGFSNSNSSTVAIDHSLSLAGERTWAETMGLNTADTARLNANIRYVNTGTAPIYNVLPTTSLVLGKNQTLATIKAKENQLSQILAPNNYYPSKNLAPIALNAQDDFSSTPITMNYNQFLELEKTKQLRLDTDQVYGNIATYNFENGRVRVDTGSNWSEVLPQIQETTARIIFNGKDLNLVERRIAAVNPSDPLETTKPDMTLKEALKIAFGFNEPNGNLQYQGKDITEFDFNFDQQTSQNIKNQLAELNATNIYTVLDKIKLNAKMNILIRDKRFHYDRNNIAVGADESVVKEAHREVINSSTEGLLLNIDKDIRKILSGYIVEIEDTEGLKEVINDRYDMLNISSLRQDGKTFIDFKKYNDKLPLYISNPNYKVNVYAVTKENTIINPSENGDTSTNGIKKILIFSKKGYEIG

[2] = target: T1, Bacillus anthracis protective antigen …; assay: SPR, purified scAb on immobilized PA ('Affinity Measurements of Purified scAb')
[3] = target: T1, Bacillus anthracis protective antigen …; assay: SPR (BIACore 3000), PA on CM5 chip
[4] = target: T1, Bacillus anthracis protective antigen …; assay: SPR (BIACore 3000)
[5] = target: T1, Bacillus anthracis protective antigen …; assay: SPR (BIACore 3000), PA on CM5 chip, scAb in solution

Binder | fold higher mean fluorescence intensity compared to controls [1] [fold] | koff [2] [s⁻¹] | kon [2] [M⁻¹ s⁻¹] | Kd [3] [nM] | fold affinity improvement compared to the parental antibody 14B7 [4] [fold] | Kd [5] [nM] | koff [5] [s⁻¹]
B1 | ~9 |  |  |  |  |  | 
B2 |  | 0.003 | 710000 | 4.3 |  |  | 
B3 |  |  | 1.2e+06 |  | > 120 | 0.035 | 4.2e-05
